Assay results taken from article PMC8634136 (The EMBO Journal, 2021).

T1: AND‐1 (human, UniProt O75717 1-1129)
T1 construct: AND-1, human; Only the trimer of SepB domains is ordered in the map; source: Hi5 insect cells (baculovirus), purified (Flag M2, MonoQ, Superdex 200)
T1 sequence: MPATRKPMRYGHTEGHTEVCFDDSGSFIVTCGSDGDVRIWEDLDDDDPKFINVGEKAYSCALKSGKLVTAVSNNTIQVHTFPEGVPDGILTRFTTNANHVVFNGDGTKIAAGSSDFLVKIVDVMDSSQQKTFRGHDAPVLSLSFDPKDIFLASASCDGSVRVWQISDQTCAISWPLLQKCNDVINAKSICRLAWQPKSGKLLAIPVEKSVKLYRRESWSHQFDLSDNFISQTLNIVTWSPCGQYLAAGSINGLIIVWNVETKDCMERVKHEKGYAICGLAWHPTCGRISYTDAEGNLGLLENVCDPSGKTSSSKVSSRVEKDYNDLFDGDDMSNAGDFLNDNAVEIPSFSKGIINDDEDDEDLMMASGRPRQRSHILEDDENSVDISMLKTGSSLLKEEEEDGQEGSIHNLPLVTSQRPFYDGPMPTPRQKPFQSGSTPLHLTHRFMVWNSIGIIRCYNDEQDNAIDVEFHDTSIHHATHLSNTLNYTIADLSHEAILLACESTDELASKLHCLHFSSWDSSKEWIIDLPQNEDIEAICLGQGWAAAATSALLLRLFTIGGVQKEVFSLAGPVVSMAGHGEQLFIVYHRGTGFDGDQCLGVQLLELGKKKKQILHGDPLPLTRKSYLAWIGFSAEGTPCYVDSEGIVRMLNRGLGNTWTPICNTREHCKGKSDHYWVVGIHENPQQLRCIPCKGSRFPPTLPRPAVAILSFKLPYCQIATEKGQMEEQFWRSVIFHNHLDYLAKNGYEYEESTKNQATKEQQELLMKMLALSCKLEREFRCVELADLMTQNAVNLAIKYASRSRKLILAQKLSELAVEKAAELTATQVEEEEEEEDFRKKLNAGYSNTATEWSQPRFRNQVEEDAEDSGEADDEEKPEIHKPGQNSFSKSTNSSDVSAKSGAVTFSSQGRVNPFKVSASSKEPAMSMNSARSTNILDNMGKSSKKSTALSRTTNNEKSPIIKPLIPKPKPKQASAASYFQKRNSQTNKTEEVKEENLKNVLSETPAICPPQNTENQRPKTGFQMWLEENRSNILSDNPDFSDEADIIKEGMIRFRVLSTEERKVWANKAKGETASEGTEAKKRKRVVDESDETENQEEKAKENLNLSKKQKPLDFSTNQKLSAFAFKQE

B1: CDC45 (natural protein, human, UniProt O75419 1-566, looked up)
chain: MFVSDFRKEFYEVVQSQRVLLFVASDVDALCACKILQALFQCDHVQYTLVPVSGWQELETAFLEHKEQFHYFILINCGANVDLLDILQPDEDTIFFVCDTHRPVNVVNVYNDTQIKLLIKQDDDLEVPAYEDIFRDEEEDEEHSGNDSDGSEPSEKRTRLEEEIVEQTMRRRQRREWEARRRDILFDYEQYEYHGTSSAMVMFELAWMLSKDLNDMLWWAIVGLTDQWVQDKITQMKYVTDVGVLQRHVSRHNHRNEDEENTLSVDCTRISFEYDLRLVLYQHWSLHDSLCNTSYTAARFKLWSVHGQKRLQEFLADMGLPLKQVKQKFQAMDISLKENLREMIEESANKFGMKDMRVQTFSIHFGFKHKFLASDVVFATMSLMESPEKDGSGTDHFIQALDSLSRSNLDKLYHGLELAKKQLRATQQTIASCLCTNLVISQGPFLYCSLMEGTPDVMLFSRPASLSLLSKHLLKSFVCSTKNRRCKLLPLVMAAPLSMEHGTVTVVGIPPETDSSDRKNFFGRAFEKAAESTSSRMLHNHFDLSVIELKAEDRSKFLDALISLLS
notes: CDC45, human; Stood in the structure as a subunit of m1; source: Hi5 insect cells, purified as a subunit of hsCMG
B2: TIMELESS (natural protein, human)
chain: MDLHMMNCELLATCSALGYLEGDTYHKEPDCLESVKDLIRYLRHEDETRDVRQQLGAAQILQSDLLPILTQHHQDKPLFDAVIRLMVNLTQPALLCFGNLPKEPSFRHHFLQVLTYLQAYKEAFASEKAFGVLSETLYELLQLGWEERQEEDNLLIERILLLVRNILHVPADLDQEKKIDDDASAHDQLLWAIHLSGLDDLLLFLASSSAEEQWSLHVLEIVSLMFRDQNPEQLAGVGQGRLAQERSADFAELEVLRQREMAEKKTRALQRGNRHSRFGGSYIVQGLKSIGERDLIFHKGLHNLRNYSSDLGKQPKKVPKRRQAARELSIQRRSALNVRLFLRDFCSEFLENCYNRLMGSVKDHLLREKAQQHDETYYMWALAFFMAFNRAASFRPGLVSETLSVRTFHFIEQNLTNYYEMMLTDRKEAASWARRMHLALKAYQELLATVNEMDISPDEAVRESSRIIKNNIFYVMEYRELFLALFRKFDERCQPRSFLRDLVETTHLFLKMLERFCRSRGNLVVQNKQKKRRKKKKKVLDQAIVSGNVPSSPEEVEAVWPALAEQLQCCAQNSELSMDSVVPFDAASEVPVEEQRAEAMVRIQDCLLAGQAPQALTLLRSAREVWPEGDVFGSQDISPEEEIQLLKQILSAPLPRQQGPEERGAEEEEEEEEEEEEELQVVQVSEKEFNFLDYLKRFACSTVVRAYVLLLRSYQQNSAHTNHCIVKMLHRLAHDLKMEALLFQLSVFCLFNRLLSDPAAGAYKELVTFAKYILGKFFALAAVNQKAFVELLFWKNTAVVREMTEGYGSLDDRSSSRRAPTWSPEEEAHLRELYLANKDVEGQDVVEAILAHLNTVPRTRKQIIHHLVQMGLADSVKDFQRKGTHIVLWTGDQELELQRLFEEFRDSDDVLGHIMKNITAKRSRARIVDKLLALGLVAERRELYKKRQKKLASSILPNGAESLKDFCQEDLEEEENLPEEDSEEEEEGGSEAEQVQGSLVLSNENLGQSLHQEGFSIPLLWLQNCLIRAADDREEDGCSQAVPLVPLTEENEEAMENEQFQQLLRKLGVRPPASGQETFWRIPAKLSPTQLRRAAASLSQPEEEQKLQPELQPKVPGEQGSDEEHCKEHRAQALRALLLAHKKKAGLASPEEEDAVGKEPLKAAPKKRQLLDSDEEQEEDEGRNRAPELGAPGIQKKKRYQIEDDEDD
notes: Stood in the structure as a subunit of m3; residues 7-803 modelled (527-684 not visualised)
B3: MCM5 (natural protein, human)
chain: MSGFDDPGIFYSDSFGGDAQADEGQARKSQLQRRFKEFLRQYRVGTDRTGFTFKYRDELKRHYNLGEYWIEVEMEDLASFDEDLADYLYKQPAEHLQLLEEAAKEVADEVTRPRPSGEEVLQDIQVMLKSDASPSSIRSLKSDMMSHLVKIPGIIIAASAVRAKATRISIQCRSCRNTLTNIAMRPGLEGYALPRKCNTDQAGRPKCPLDPYFIMPDKCKCVDFQTLKLQELPDAVPHGEMPRHMQLYCDRYLCDKVVPGNRVTIMGIYSIKKFGLTTSRGRDRVGVGIRSSYIRVLGIQVDTDGSGRSFAGAVSPQEEEEFRRLAALPNVYEVISKSIAPSIFGGTDMKKAIACLLFGGSRKRLPDGLTRRGDINLLMLGDPGTAKSQLLKFVEKCSPIGVYTSGKGSSAAGLTASVMRDPSSRNFIMEGGAMVLADGGVVCIDEFDKMREDDRVAIHEAMEQQTISIAKAGITTTLNSRCSVLAAANSVFGRWDETKGEDNIDFMPTILSRFDMIFIVKDEHNEERDVMLAKHVITLHVSALTQTQAVEGEIDLAKLKKFIAYCRVKCGPRLSAEAAEKLKNRYIIMRSGARQHERDSDRRSSIPITVRQLEAIVRIAEALSKMKLQPFATEADVEEALRLFQVSTLDAALSGTLSGVEGFTSQEDQEMLSRIEKQLKRRFAIGSQVSEHSIIKDFTKQKYPEHAIHKVLQLMLRRGEIQHRMQRKVLYRLK
notes: MCM5, human; Stood in the structure as a subunit of m1; source: Hi5 insect cells, purified as a subunit of hsCMG
B4: PSF2 (natural protein, human)
chain: MDAAEVEFLAEKELVTIIPNFSLDKIYLIGGDLGPFNPGLPVEVPLWLAINLKQRQKCRLLPPEWMDVEKLEKMRDHERKEETFTPMPSPYYMELTKLLLNHASDNIPKADEIRTLVKDMWDTRIAKLRVSADSFVRQQEAHAKLDNLTLMEINTSGTFLTQALNHMYKLRTNLQPLESTQSQDF
notes: PSF2 (GINS subunit), human; Stood in the structure as a subunit of m1; also called PSF2 subunit of GINS; source: Hi5 insect cells, purified as a subunit of hsCMG

Tests used:
Experiment in all cases: cryo-EM structure; replisome reconstituted on fork DNA with AMP-PNP, isolated on a glycerol gradient with glutaraldehyde and BS3; 3.2 Å overall; a sample without CLASPIN solved at 3.4 Å
Conditions in all cases: both partners purified
POLE1 = target: T2, POLE1 (human, UniProt Q07864 1-2286)
T2 construct: POLE1, catalytic subunit of Pol ε, human; Stood in the structure as a subunit of m2; residues 1,371-2,280 modelled; also called POLE1 catalytic subunit; POLE1^nonCat (the modelled C-terminal non-catalytic domain); source: Hi5 insect cells, purified as a subunit of Pol ε
T2 sequence (Q07864 whole entry, the tested form may be a part): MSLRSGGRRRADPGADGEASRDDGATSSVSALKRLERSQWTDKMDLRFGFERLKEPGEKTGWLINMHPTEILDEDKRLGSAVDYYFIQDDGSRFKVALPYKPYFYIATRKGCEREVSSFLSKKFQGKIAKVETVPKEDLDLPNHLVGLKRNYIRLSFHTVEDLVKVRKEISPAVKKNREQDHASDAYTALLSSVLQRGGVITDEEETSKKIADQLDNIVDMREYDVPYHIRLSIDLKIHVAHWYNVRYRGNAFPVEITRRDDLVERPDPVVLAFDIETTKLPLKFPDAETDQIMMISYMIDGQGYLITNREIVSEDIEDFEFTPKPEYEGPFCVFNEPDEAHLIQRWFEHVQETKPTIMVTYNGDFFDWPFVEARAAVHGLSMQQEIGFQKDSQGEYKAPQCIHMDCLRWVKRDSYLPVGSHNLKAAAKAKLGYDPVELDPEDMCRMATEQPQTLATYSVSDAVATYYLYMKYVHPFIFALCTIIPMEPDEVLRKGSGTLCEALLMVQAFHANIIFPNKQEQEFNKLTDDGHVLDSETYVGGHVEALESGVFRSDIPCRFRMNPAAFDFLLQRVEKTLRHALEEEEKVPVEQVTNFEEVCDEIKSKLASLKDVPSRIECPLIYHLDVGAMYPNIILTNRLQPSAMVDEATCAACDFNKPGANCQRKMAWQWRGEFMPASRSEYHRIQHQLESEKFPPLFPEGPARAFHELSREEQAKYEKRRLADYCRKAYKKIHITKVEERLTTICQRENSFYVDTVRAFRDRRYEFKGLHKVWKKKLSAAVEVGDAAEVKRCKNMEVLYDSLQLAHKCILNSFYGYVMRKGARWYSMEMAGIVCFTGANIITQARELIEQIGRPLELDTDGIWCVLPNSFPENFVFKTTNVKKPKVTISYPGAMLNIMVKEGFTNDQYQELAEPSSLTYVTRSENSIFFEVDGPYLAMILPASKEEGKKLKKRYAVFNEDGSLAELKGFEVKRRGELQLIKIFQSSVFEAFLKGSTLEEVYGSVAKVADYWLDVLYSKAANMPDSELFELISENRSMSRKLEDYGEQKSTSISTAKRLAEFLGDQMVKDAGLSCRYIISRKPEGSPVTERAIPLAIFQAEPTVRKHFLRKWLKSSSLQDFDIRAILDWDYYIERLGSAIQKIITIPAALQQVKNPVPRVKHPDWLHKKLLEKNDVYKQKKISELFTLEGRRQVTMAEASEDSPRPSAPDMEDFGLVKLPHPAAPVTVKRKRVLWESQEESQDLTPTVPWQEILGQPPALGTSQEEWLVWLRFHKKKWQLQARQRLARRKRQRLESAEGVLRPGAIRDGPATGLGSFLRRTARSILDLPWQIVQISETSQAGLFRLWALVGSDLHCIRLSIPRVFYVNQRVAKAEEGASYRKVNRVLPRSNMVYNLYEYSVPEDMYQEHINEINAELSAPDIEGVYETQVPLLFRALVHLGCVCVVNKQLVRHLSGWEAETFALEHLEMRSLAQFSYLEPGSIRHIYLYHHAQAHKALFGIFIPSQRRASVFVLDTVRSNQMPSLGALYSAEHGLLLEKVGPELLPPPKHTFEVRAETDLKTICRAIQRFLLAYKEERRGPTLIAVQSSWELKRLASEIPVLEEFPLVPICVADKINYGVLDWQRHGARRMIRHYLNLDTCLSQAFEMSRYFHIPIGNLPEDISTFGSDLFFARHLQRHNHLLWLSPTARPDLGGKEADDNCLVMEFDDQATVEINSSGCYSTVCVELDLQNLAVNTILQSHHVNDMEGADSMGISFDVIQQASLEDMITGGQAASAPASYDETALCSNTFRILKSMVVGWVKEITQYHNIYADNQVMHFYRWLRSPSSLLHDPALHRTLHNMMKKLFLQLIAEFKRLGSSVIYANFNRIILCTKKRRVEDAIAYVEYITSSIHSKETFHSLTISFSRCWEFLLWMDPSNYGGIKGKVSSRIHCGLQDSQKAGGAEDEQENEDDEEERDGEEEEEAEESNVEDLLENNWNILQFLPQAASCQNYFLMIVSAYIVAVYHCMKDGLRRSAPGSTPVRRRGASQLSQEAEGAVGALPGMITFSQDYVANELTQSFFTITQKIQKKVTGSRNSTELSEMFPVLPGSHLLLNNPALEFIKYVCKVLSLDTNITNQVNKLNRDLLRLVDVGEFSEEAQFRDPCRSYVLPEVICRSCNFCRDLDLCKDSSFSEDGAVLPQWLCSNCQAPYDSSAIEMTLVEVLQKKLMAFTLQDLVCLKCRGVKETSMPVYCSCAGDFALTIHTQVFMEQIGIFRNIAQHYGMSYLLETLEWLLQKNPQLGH

AND‐1 = target: T1, AND‐1
CLASPIN = target: T3, CLASPIN (human, UniProt Q9HAW4 1-1339)
T3 construct: CLASPIN, human; Only residues 284-319, 525-540 and 592-618 are modelled in the structure; source: Hi5 insect cells (baculovirus), purified (Flag M2, Superose 6)
T3 sequence (Q9HAW4 whole entry, the tested form may be a part): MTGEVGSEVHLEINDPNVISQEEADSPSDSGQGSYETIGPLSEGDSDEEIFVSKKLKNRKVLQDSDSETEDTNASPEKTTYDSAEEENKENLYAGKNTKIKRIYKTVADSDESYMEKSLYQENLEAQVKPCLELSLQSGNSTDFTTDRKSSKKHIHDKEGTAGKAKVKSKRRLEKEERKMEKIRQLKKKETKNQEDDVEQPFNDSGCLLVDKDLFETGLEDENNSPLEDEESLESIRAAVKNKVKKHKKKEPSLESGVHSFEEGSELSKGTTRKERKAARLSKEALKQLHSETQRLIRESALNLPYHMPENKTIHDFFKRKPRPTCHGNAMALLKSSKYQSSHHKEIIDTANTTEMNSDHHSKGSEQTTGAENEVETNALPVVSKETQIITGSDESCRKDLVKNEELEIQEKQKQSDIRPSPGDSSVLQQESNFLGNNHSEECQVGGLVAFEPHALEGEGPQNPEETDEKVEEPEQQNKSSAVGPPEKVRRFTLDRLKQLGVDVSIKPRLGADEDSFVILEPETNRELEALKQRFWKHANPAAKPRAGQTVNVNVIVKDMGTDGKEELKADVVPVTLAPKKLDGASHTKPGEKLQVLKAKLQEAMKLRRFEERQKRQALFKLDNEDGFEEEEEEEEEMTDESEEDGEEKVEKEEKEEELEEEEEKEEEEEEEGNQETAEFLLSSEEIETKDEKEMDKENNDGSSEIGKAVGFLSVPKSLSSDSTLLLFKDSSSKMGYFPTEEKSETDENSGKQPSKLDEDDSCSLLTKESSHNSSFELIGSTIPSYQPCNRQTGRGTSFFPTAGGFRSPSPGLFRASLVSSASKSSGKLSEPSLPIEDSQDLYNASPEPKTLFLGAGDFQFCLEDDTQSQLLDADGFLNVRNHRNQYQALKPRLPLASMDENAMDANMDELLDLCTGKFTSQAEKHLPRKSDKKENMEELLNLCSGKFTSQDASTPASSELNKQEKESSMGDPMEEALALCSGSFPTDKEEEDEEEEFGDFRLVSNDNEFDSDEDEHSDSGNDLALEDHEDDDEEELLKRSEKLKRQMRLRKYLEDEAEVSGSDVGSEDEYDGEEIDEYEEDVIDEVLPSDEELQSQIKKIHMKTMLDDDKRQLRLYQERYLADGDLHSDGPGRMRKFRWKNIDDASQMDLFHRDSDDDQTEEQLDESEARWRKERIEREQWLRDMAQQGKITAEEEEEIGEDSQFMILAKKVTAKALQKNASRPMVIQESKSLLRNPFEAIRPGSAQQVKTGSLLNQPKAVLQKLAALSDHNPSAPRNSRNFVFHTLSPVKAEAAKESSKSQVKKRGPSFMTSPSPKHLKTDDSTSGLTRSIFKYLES

| Binder | binding result (POLE1) | binding result (AND‐1) | binding result (CLASPIN) |
| --- | --- | --- | --- |
| B1 | binds | binds |  |
| B2 |  |  | binds |
| B3 | binds |  |  |
| B4 |  | binds |  |
